Paper PMC3371134 (Journal of Neurochemistry, 2012)

Target: calmodulin-Sepharose (calmodulin coupled to Sepharose beads) (UniProt P62157 1-149)
Experiment: pull-down

binding result: binds
B1: Pcp4l1 IQ motif synthetic peptide (peptide)
peptide: APETEKAALAIQGKFRRFQKRKKDS
